Where a chain is given by its changes, count along the chain named.
B1: RFB-4 (antibody, V domains shown)
VH: EVQLVESGGGLVKPGGSLKLSCAASGFAFSIYDMSWVRQTPEKRLEWVAYISSGGGTTYYPDTVKGRFTISRDNAKNTLYLQMSSLKSEDTAMYYCARHSGYGSSYGVLFAYWGQGTLVTVSA
VL: DIQMTQTTSSLSASLGDRVTISCRASQDISNYLNWYQQKPDGTVKLLIYYTSILHSGVPSRFSGSGSGTDYSLTISNLEQEDFATYFCQQGNTLPWTFGGGTKLEIK
B2: CD22 antibody FC2-201 (antibody, V domains shown)
VH: KVQLQQSGAGLVKPGASVKLSCKASGYTFTDSILHWLMQRSGQGLEWIGWFYPGSGSIKYNEKFKDKATLTADKSSSTVYMELSRLTSEDSAFYFCARHEDGYDGFAYWGQGTLVTVSA
VL: ENVLTQSPAIMSASLGEKVTMSCRASSSVNYIFWYQQKSDASPKLWIYYTSNLAPGVPARFSGSGSGNSYSLTISSMEGEDAATYYCQQFTSSPFTFGSGTKLEIKR
B3: CD22 antibody FC2-117 (antibody, V domains shown)
VH: DVQLQESGPGLVKPSQSLSLTCSVTGYSITSGYYWNWIRQFPGNKLEWMGYISYDGSNNYNPSLKNRISITRDTSKNQFFLKLNSVTTEDTATYYCTKGGYGYYFDYWGQGTTLTVSS
VL: DIQMTQSPASLSASVGETVTITCRASGNIHNYLAWYQQKQGKSPQLLVYNAKTLADGVPSRFSGSGSGTQYSLKINSLQPEDFGSYYCQHFWSTPPTFGGGTKLEIKR
B4: CD22 antibody FC2-153 (antibody, V domains shown)
VH: QVQLQQSGAELMKPGASVKISCKATGYTFSSYWIEWVKQRPGHGLEWIGEILPGSGSTNYNEKFKGKATFTADTSSNTAYMQLSSLTSEDSAVYYCARWGQLGLFYAMDYWGQGTSVTVSS
VL: DIQMTQSPASLSASVGETVTITCRASENIYSYLAWYQQKQGKSPQLLVYNAKTLAEGVPSRFSGSGSGTQFSLKINSLQPEDFGSYYCQHHYGSPLTFGAGTKLELKR
B5: CD22 antibody FC2-070 (antibody, V domains shown)
VH: QVQLQQPGAELVKPGTSVKLSCKASGYNFTSYWINWVKLRPGQGLEWIGDIYPGSGNTNYNEKFKSKATLTVDTSSTTAYMQLSSLASEDSALYYCARRGYLDYWGQGTTLTVSS
VL: B3 VL with K74T, P96L, G100A, I106L
B6: CD22 antibody FC2-203 (antibody, V domains shown)
VH: QVQLQQPGAELVRPGASVKLSCKASGYTFSSYWINWVKQRPGQGLEWIGNIYPSDSYTNYNQKFKDKATLTVDKSSSTAYMQLSSPTSEDSAVYYCTREGHYYGSFGAMDYWGQGTSVTVSS
VL: DVQITQSPSYLAASPGETITINCRASKTISKYLAWYQEKPGKTNKLLIYSGSTLQSGIPSRFSGSGSGTDFTLTISSLEPEDFAMYYCQQHNEYPWTFGGGTKLEIKR

target: K562-CD22 (UniProt P20273 20-847); assay: FACS binding

Row | EC50 | Binder
1 | 0.632 nM | B1

target: T1, Human CD22 extracellular segment conjugated His label (human, UniProt P20273 20-687); assay: ELISA

Row | EC50 | Binder
2 | 0.096 nM | B2
3 | 0.629 nM | B3
4 | 0.145 nM | B4
5 | 0.154 nM | B5
6 | 0.457 nM | B6

target: T1, Human CD22 extracellular segment …; assay: BLI (Fortebio)

Row | Kd | Binder
7 | 0.0722 nM | B2
8 | 2.73 nM | B3
9 | 0.92 nM | B4
10 | 0.569 nM | B5
11 | 7.08 nM | B6
